Results on five sequences are retold here after the supplement of paper PMC5998384.

Data set [1] has as its system HeLa Kyoto. Kind of data set: solubility in G1/S (NP-40 vs SDS abundance) (log2 ratio); higher = more soluble. The note with it: cell cycle stage: G1/S.
Data set [2] has as its system HeLa Kyoto. As to the kind of experiment: melting temperature (median over replicates), in situ; higher = more thermally stable.
Data set [3] concerns HeLa Kyoto. Kind of data set: solubility change mitosis vs G1/S (difference of NP-40 vs SDS log2 ratios) (log2 ratio difference); higher = more soluble in mitosis.
For data set [4], the system named is HeLa Kyoto. As to the kind of experiment: thermal stability score vs G1/S (z-score of summed log2 fold changes over temperatures); higher = more thermally stable than in G1/S.
The mark [5] stands for this setting: cell cycle stage: early G1 (4.5 h after nocodazole release).
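Wherever melting temperature (median over replicates), in situ is given: HeLa Kyoto cells synchronized by double thymidine or nocodazole block, proteins quantified by TMT10plex mass spectrometry, three independent biological replicates.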
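Wherever solubility change mitosis vs G1/S (difference of NP-40 vs SDS log2 ratios) is given: synchronized HeLa Kyoto cells (double thymidine block for G1/S, nocodazole release for mitosis), protein amounts in NP-40 versus SDS lysates quantified by mass spectrometry, three biological replicates.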
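Wherever solubility in G1/S (NP-40 vs SDS abundance) is given: HeLa Kyoto cells arrested at G1/S by double thymidine block, proteins quantified by TMT10plex mass spectrometry in mild NP-40 versus SDS extracts, three biological replicates.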
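Wherever thermal stability score vs G1/S (z-score of summed log2 fold changes over temperatures) is given: synchronized HeLa Kyoto cells, proteins quantified by TMT10plex mass spectrometry, three biological replicates, mitosis taken 0.5 h after nocodazole release, G1/S directly after double thymidine block.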

In the case of “MADSGLLLKRGSCRSTWLRVRKARPQLILSRRPRRRLGSLRWCGRRRLRWRLLQAQASGVDWREGARQVSRAAAARRPNTATPSPIPSPTPASEPESEPELESASSCHRPLLIPPVRPVGPGRALLLLPVEQGFTFSGICRVTCLYGQVQVFGFTISQGQPAQDIFSVYTHSCLSIHALHYSQPEKSKKELKREARNLLKSHLNLDDRRWSMQNFSPQCSIVLLEHLKTATVNFITSYPGSSYIFVQESPTPQIKPEYLALRSVGIRREKKRKGLQLTESTLSALEELVNVSCEEVDGCPVILVCGSQDVGKSTFNRYLINHLLNSLPCVDYLECDLGQTEFTPPGCISLLNITEPVLGPPFTHLRTPQKMVYYGKPSCKNNYENYIDIVKYVFSAYKRESPLIVNTMGWVSDQGLLLLIDLIRLLSPSHVVQFRSDHSKYMPDLTPQYVDDMDGLYTKSKTKMRNRRFRLAAFADALEFADEEKESPVEFTGHKLIGVYTDFAFRITPRNRESHNKILRDLSILSYLSQLQPPMPKPLSPLHSLTPYQVPFNAVALRITHSDVAPTHILYAVNASWVGLCKIQDDVRGYTNGPILLAQTPICDCLGFGICRGIDMEKRLYHILTPVPPEELRTVNCLLVGAIAIPHCVLKCQRGIEGTVPYVTTDYNFKLPGASEKIGAREPEEAHKEKPYRRPKFCRKMK [NOL9]”, the “solubility in G1/S (log2)” value in data set [1] was -1.82. The sequence also gave a melting temperature in data set [2] (cell cycle stage: mitosis) of 51.3 °C. The “solubility change mitosis (log2)” value in data set [3] is 0.92. In addition, the thermal stability score came to 1.99 in data set [4] (setting [5]) and 1.53 in data set [4] (cell cycle stage: mitosis).

For the sequence “MADSKEGVLPLTAASTAPISFGFTRTSARRRLADSGDGAGPSPEEKDFLKTVEGRELQSVKPQEAPKELVIPLIQNGHRRQPPARPPGPSTDTGALADGVVSQAVKELIAESKKSLEERENAGVDPTLAIPMIQKGCTPSGEGADSEPRAETVPEEANYEAVPVEAYGLAMLRGMGWKPGEGIGRTFNQVVKPRVNSLRPKGLGLGANLTEAQALTPTGPSRMPRPDEEQEKDKEDQPQGLVPGGAVVVLSGPHRGLYGKVEGLDPDNVRAMVRLAVGSRVVTVSEYYLRPVSQQEFDKNTLDLRQQNGTASSRKTLWNQELYIQQDNSERKRKHLPDRQDGPAAKSEKAAPRSQHWLHRDLRVRFVDNMYKGGQYYNTKMIIEDVLSPDTCVCRTDEGRVLEGLREDMLETLVPKAEGDRVMVVLGPQTGRVGHLLSRDRARSRALVQLPRENQVVELHYDAICQYMGPSDTDDD [GPKOW]”, the “solubility in G1/S (log2)” value in data set [1] is 0.393. The results for the melting temperature in data set [2] (cell cycle stage: G1/S) and in data set [2] (cell cycle stage: mitosis) were 48.8 °C and 49.8 °C, respectively. For the same sequence, in data set [3], the “solubility change mitosis (log2)” value is -0.0336. In addition, the thermal stability score was 0.906 in data set [4] (setting [5]) and 2.23 in data set [4] (cell cycle stage: mitosis).

For the sequence “MADTDLFMECEEEELEPWQKISDVIEDSVVEDYNSVDKTTTVSVSQQPVSAPVPIAAHASVAGHLSTSTTVSSSGAQNSDSTKKTLVTLIANNNAGNPLVQQGGQPLILTQNPAPGLGTMVTQPVLRPVQVMQNANHVTSSPVASQPIFITTQGFPVRNVRPVQNAMNQVGIVLNVQQGQTVRPITLVPAPGTQFVKPTVGVPQVFSQMTPVRPGSTMPVRPTTNTFTTVIPATLTIRSTVPQSQSQQTKSTPSTSTTPTATQPTSLGQLAVQSPGQSNQTTNPKLAPSFPSPPAVSIASFVTVKRPGVTGENSNEVAKLVNTLNTIPSLGQSPGPVVVSNNSSAHGSQRTSGPESSMKVTSSIPVFDLQDGGRKICPRCNAQFRVTEALRGHMCYCCPEMVEYQKKGKSLDSEPSVPSAAKPPSPEKTAPVASTPSSTPIPALSPPTKVPEPNENVGDAVQTKLIMLVDDFYYGRDGGKVAQLTNFPKVATSFRCPHCTKRLKNNIRFMNHMKHHVELDQQNGEVDGHTICQHCYRQFSTPFQLQCHLENVHSPYESTTKCKICEWAFESEPLFLQHMKDTHKPGEMPYVCQVCQYRSSLYSEVDVHFRMIHEDTRHLLCPYCLKVFKNGNAFQQHYMRHQKRNVYHCNKCRLQFLFAKDKIEHKLQHHKTFRKPKQLEGLKPGTKVTIRASRGQPRTVPVSSNDTPPSALQEAAPLTSSMDPLPVFLYPPVQRSIQKRAVRKMSVMGRQTCLECSFEIPDFPNHFPTYVHCSLCRYSTCCSRAYANHMINNHVPRKSPKYLALFKNSVSGIKLACTSCTFVTSVGDAMAKHLVFNPSHRSSSILPRGLTWIAHSRHGQTRDRVHDRNVKNMYPPPSFPTNKAATVKSAGATPAEPEELLTPLAPALPSPASTATPPPTPTHPQALALPPLATEGAECLNVDDQDEGSPVTQEPELASGGGGSGGVGKKEQLSVKKLRVVLFALCCNTEQAAEHFRNPQRRIRRWLRRFQASQGENLEGKYLSFEAEEKLAEWVLTQREQQLPVNEETLFQKATKIGRSLEGGFKISYEWAVRFMLRHHLTPHARRAVAHTLPKDVAENAGLFIDFVQRQIHNQDLPLSMIVAIDEISLFLDTEVLSSDDRKENALQTVGTGEPWCDVVLAILADGTVLPTLVFYRGQMDQPANMPDSILLEAKESGYSDDEIMELWSTRVWQKHTACQRSKGMLVMDCHRTHLSEEVLAMLSASSTLPAVVPAGCSSKIQPLDVCIKRTVKNFLHKKWKEQAREMADTACDSDVLLQLVLVWLGEVLGVIGDCPELVQRSFLVASVLPGPDGNINSPTRNADMQEELIASLEEQLKLSGEHSESSTPRPRSSPEETIEPESLHQLFEGESETESFYGFEEADLDLMEI [POGZ]”, the “solubility in G1/S (log2)” value in data set [1] is -0.704. The same sequence returned a melting temperature in data set [2] (cell cycle stage: mitosis) of 49.5 °C. Moreover, the “solubility change mitosis (log2)” value in data set [3] came out at 0.341. Further, the thermal stability score was determined as 1.1 in data set [4] (setting [5]) and 2.58 in data set [4] (cell cycle stage: mitosis).

As for “MADTLPSEFDVIVIGTGLPESIIAAACSRSGRRVLHVDSRSYYGGNWASFSFSGLLSWLKEYQENSDIVSDSPVWQDQILENEEAIALSRKDKTIQHVEVFCYASQDLHEDVEEAGALQKNHALVTSANSTEAADSAFLPTEDESLSTMSCEMLTEQTPSSDPENALEVNGAEVTGEKENHCDDKTCVPSTSAEDMSENVPIAEDTTEQPKKNRITYSQIIKEGRRFNIDLVSKLLYSRGLLIDLLIKSNVSRYAEFKNITRILAFREGRVEQVPCSRADVFNSKQLTMVEKRMLMKFLTFCMEYEKYPDEYKGYEEITFYEYLKTQKLTPNLQYIVMHSIAMTSETASSTIDGLKATKNFLHCLGRYGNTPFLFPLYGQGELPQCFCRMCAVFGGIYCLRHSVQCLVVDKESRKCKAIIDQFGQRIISEHFLVEDSYFPENMCSRVQYRQISRAVLITDRSVLKTDSDQQISILTVPAEEPGTFAVRVIELCSSTMTCMKGTYLVHLTCTSSKTAREDLESVVQKLFVPYTEMEIENEQVEKPRILWALYFNMRDSSDISRSCYNDLPSNVYVCSGPDCGLGNDNAVKQAETLFQEICPNEDFCPPPPNPEDIILDGDSLQPEASESSAIPEANSETFKESTNLGNLEESSE [CHM]”, the “solubility in G1/S (log2)” value in data set [1] is -0.115. The melting temperature came out at 52.9 °C in data set [2] (cell cycle stage: G1/S) and 53.1 °C in data set [2] (cell cycle stage: mitosis). In addition, in data set [3], the “solubility change mitosis (log2)” value is -0.191. Also, the thermal stability score in data set [4] (setting [5]) is -0.484; in data set [4] (cell cycle stage: mitosis) it was -1.2.

In the case of “MAEAAAAAGGTGLGAGASYGSAADRDRDPDPDRAGRRLRVLSGHLLGRPREALSTNECKARRAASAATAAPTATPAAQESGTIPKKRQEVMKWNGWGYNDSKFIFNKKGQIELTGKRYPLSGMGLPTFKEWIQNTLGVNVEHKTTSKASLNPSDTPPSVVNEDFLHDLKETNISYSQEADDRVFRAHGHCLHEIFLLREGMFERIPDIVLWPTCHDDVVKIVNLACKYNLCIIPIGGGTSVSYGLMCPADETRTIISLDTSQMNRILWVDENNLTAHVEAGITGQELERQLKESGYCTGHEPDSLEFSTVGGWVSTRASGMKKNIYGNIEDLVVHIKMVTPRGIIEKSCQGPRMSTGPDIHHFIMGSEGTLGVITEATIKIRPVPEYQKYGSVAFPNFEQGVACLREIAKQRCAPASIRLMDNKQFQFGHALKPQVSSIFTSFLDGLKKFYITKFKGFDPNQLSVATLLFEGDREKVLQHEKQVYDIAAKFGGLAAGEDNGQRGYLLTYVIAYIRDLALEYYVLGESFETSAPWDRVVDLCRNVKERITRECKEKGVQFAPFSTCRVTQTYDAGACIYFYFAFNYRGISDPLTVFEQTEAAAREEILANGGSLSHHHGVGKLRKQWLKESISDVGFGMLKSVKEYVDPNNIFGNRNLL [AGPS]”, the “solubility in G1/S (log2)” value in data set [1] is -0.0393. Besides, the melting temperature in data set [2] (cell cycle stage: G1/S) was found to be 52.8 °C; in data set [2] (cell cycle stage: mitosis), 52.9 °C. Moreover, the “solubility change mitosis (log2)” value in data set [3] is -0.139. In addition, the values for the thermal stability score in data set [4] (setting [5]) and in data set [4] (cell cycle stage: mitosis) were 0.703 and 1.37, respectively.
